The values below come from publication PMC11480844 (2024).

The chains are these.
B1: H2-Kb / Ed10 (parent complex)
chain 1: GEQVEQRPPHLSVREGDSAFIICTYTDSATAYFYWYKQEPGAGLQLLMSVFSNVDRKEEQGLTVLLNKKDKRLSLNLTAAHPGDSAVYFCAVRGTGYQNFYFGKGTSLTVIP
chain 2: AQTIHQWPVAEIKAVGSPLSLGCTIKGKSSPNLYWYWQATGGTLQQLFYSITVGQVESVVQLNLSASRPKDDQFILSTEKLLLSHSGFYLCAWSPGYEQYFGPGTRLTVL
chain 3: not shown
chain 4: IQKTPQIQVYSRHPPENGKPNILNCYVTQFHPPHIEIQMLKNGKKIPKVEMSDMSFSKDWSFYILAHTEFTPTETDTYACRVKHDSMAEPKTVYWDRDM
chain 5: SIINFEKL
B2: H2-Kb / Ed45 (parent complex)
chain 1: GEQVEQRPPHLSVREGDSAVIICTYTDPNSYYFFWYKQEPGAGLQLLMKVFSSTEINEGQGFTVLLNKKDKQLSLNLTAAHPGDSAVYFCAVSGTNAYKVIFGKGTHLHVLP
chain 2: EAAVTQSPRSKVAVTGGKVTLSCHQTNNHDYMYWYRQDTGHGLRLIHYSYVADSTEKGDIPDGYKASRPSQENFSLILELASLSQTAVYFCASARGFQDTQYFGPGTRLLVL
chain 3: not shown
chain 4: B1 chain 4
chain 5: SIINFEKL
Also: test concentration or dose not given here.

The first experiment covers variants of B1. Nature of the experiment: % of reporter cells activated (NFAT-GFP), raw.
For chain 5 E6G, the ratio to parent is 0.824.

For chain 5 E6S, the ratio to parent is 0.0168.

Turning to chain 5 S1W, the ratio to parent came to 0.717.

For chain 5 S1H, the ratio to parent was found to be 1.01.

The variants in another experiment derive from B2. In words: % of reporter cells activated (NFAT-GFP), raw.
With chain 5 K7F, the ratio to parent worked out at 0.418.

chain 5 K7V: the ratio to parent was 0.895.

Consider chain 5 K7A, for which the ratio to parent was found to be 0.925.

On to chain 5 K7W, for which the ratio to parent stood at 1.18.

With chain 5 K7Q, the ratio to parent was determined as 0.193.

With chain 5 K7H, the ratio to parent is 1.25.

On to chain 5 K7T, for which the ratio to parent is 0.253.

Consider chain 5 K7E, for which the ratio to parent was 0.0609.

Consider chain 5 K7N, for which the ratio to parent came to 0.639.

Turning to chain 5 K7C, the ratio to parent turned out to be 0.0944.

As to chain 5 K7P, the ratio to parent is 0.891.

With chain 5 K7M, the ratio to parent amounted to 1.21.

As for chain 5 K7R, the ratio to parent is 2.06.

Take chain 5 K7D: the ratio to parent was 0.247.

Take chain 5 K7I: the ratio to parent turned out to be 0.349.

As for chain 5 K7L, the ratio to parent worked out at 0.569.

As for chain 5 K7Y, the ratio to parent was 1.03.

Turning to chain 5 K7G, the ratio to parent came to 0.872.

Take chain 5 I3R: the ratio to parent worked out at 2.47.

Turning to chain 5 I3V, the ratio to parent stood at 2.18.

For chain 5 I3C, the ratio to parent is 1.81.

As to chain 5 I3D, the ratio to parent is 2.15.

As for chain 5 I3Y, the ratio to parent amounted to 0.537.

Consider chain 5 I3Q, for which the ratio to parent was 2.26.

With chain 5 I3F, the ratio to parent came to 0.726.

For chain 5 I3L, the ratio to parent is 1.61.

As to chain 5 I3E, the ratio to parent is 2.17.

As to chain 5 I3T, the ratio to parent was determined as 1.86.

As for chain 5 I3S, the ratio to parent was found to be 1.96.

Take chain 5 I3P: the ratio to parent amounted to 2.34.

Take chain 5 I3M: the ratio to parent is 2.2.

As for chain 5 I3H, the ratio to parent was 2.02.

With chain 5 I3A, the ratio to parent worked out at 2.14.

For the variant chain 5 I3G, the ratio to parent was 1.87.

Turning to chain 5 I3N, the ratio to parent was 1.85.

For the variant chain 5 I3W, the ratio to parent was determined as 1.57.

In the case of chain 5 I3K, the ratio to parent turned out to be 2.08.

As for chain 5 I2N, the ratio to parent was 1.33.

As to chain 5 I2G, the ratio to parent stood at 1.62.

For the variant chain 5 I2P, the ratio to parent came to 1.32.

Turning to chain 5 I2F, the ratio to parent was 1.21.

As for chain 5 I2E, the ratio to parent is 1.97.

chain 5 I2T: the ratio to parent came out at 1.23.

Take chain 5 I2R: the ratio to parent came to 1.63.

With chain 5 I2C, the ratio to parent was 1.39.

As for chain 5 I2H, the ratio to parent came out at 1.61.

With chain 5 I2L, the ratio to parent was 2.14.

Turning to chain 5 I2Y, the ratio to parent was found to be 1.75.

Take chain 5 I2V: the ratio to parent was 1.48.

As to chain 5 I2D, the ratio to parent turned out to be 1.34.

For chain 5 I2M, the ratio to parent came out at 2.11.

For the variant chain 5 I2W, the ratio to parent was determined as 1.68.

chain 5 I2S: the ratio to parent amounted to 1.32.

For the variant chain 5 I2A, the ratio to parent is 1.32.

Take chain 5 I2K: the ratio to parent was found to be 1.83.

Consider chain 5 I2Q, for which the ratio to parent amounted to 1.91.

On to chain 5 S1A, for which the ratio to parent was 0.0786.

With chain 5 S1Y, the ratio to parent is 0.775.

Turning to chain 5 S1V, the ratio to parent was 0.0654.

On to chain 5 S1M, for which the ratio to parent stood at 0.0805.

For the variant chain 5 S1C, the ratio to parent is 0.234.

Consider chain 5 S1G, for which the ratio to parent was found to be 0.388.

In the case of chain 5 S1P, the ratio to parent was found to be 0.0861.

Regarding chain 5 S1W, the ratio to parent came out at 0.347.

chain 5 S1E: the ratio to parent was determined as 0.177.

Consider chain 5 S1K, for which the ratio to parent is 0.191.

chain 5 S1H: the ratio to parent worked out at 0.638.

With chain 5 S1T, the ratio to parent is 0.483.

For chain 5 S1D, the ratio to parent came to 0.424.

For the variant chain 5 S1F, the ratio to parent was found to be 0.0609.

chain 5 S1I: the ratio to parent stood at 0.0549.

Regarding chain 5 S1R, the ratio to parent amounted to 0.648.

Regarding chain 5 S1N, the ratio to parent worked out at 0.0722.

On to chain 5 S1Q, for which the ratio to parent was 0.331.

On to chain 5 N4E, for which the ratio to parent is 1.11.

Consider chain 5 N4M, for which the ratio to parent came to 0.0786.

chain 5 N4P: the ratio to parent was 0.0883.

Take chain 5 N4H: the ratio to parent was determined as 0.668.

Take chain 5 N4G: the ratio to parent was found to be 1.18.

On to chain 5 N4T, for which the ratio to parent amounted to 0.0812.

In the case of chain 5 N4W, the ratio to parent was 0.125.

Take chain 5 N4Q: the ratio to parent came out at 0.0624.

As to chain 5 N4L, the ratio to parent turned out to be 1.34.

As to chain 5 N4V, the ratio to parent was found to be 0.0865.

On to chain 5 N4Y, for which the ratio to parent came to 0.0695.

Regarding chain 5 N4C, the ratio to parent worked out at 0.183.

For the variant chain 5 N4F, the ratio to parent was 0.261.

With chain 5 N4K, the ratio to parent came out at 1.07.

For chain 5 N4R, the ratio to parent was 0.533.

Turning to chain 5 N4S, the ratio to parent worked out at 0.0823.

As to chain 5 N4D, the ratio to parent is 0.241.

Take chain 5 N4A: the ratio to parent stood at 0.0797.

Regarding chain 5 E6L, the ratio to parent amounted to 0.26.

With chain 5 E6K, the ratio to parent is 0.861.

Consider chain 5 E6M, for which the ratio to parent turned out to be 0.312.

For chain 5 E6P, the ratio to parent was 1.12.

In the case of chain 5 E6Q, the ratio to parent stood at 0.738.

With chain 5 E6D, the ratio to parent amounted to 0.542.

Take chain 5 E6I: the ratio to parent came to 0.155.

With chain 5 E6W, the ratio to parent is 0.317.

For the variant chain 5 E6F, the ratio to parent came to 0.188.

With chain 5 E6C, the ratio to parent was found to be 0.258.

chain 5 E6H: the ratio to parent was determined as 0.541.

chain 5 E6A: the ratio to parent is 1.48.

On to chain 5 E6S, for which the ratio to parent was 0.801.

chain 5 E6G: the ratio to parent amounted to 0.715.

On to chain 5 E6Y, for which the ratio to parent is 0.198.

Turning to chain 5 E6N, the ratio to parent is 1.11.

Regarding chain 5 E6V, the ratio to parent was found to be 0.148.

Regarding chain 5 E6R, the ratio to parent was 0.0752.

Turning to chain 5 L8K, the ratio to parent is 1.87.

Turning to chain 5 L8T, the ratio to parent is 1.72.

Consider chain 5 L8E, for which the ratio to parent came out at 1.52.

As to chain 5 L8S, the ratio to parent is 1.53.

For chain 5 L8C, the ratio to parent came to 1.72.

For chain 5 L8W, the ratio to parent came to 1.7.

In the case of chain 5 L8P, the ratio to parent turned out to be 1.68.

chain 5 L8D: the ratio to parent came to 1.52.

As to chain 5 L8H, the ratio to parent was 1.66.

Consider chain 5 L8V, for which the ratio to parent was 1.43.

Turning to chain 5 L8F, the ratio to parent was 1.79.

In the case of chain 5 L8M, the ratio to parent was determined as 1.65.

chain 5 L8I: the ratio to parent was found to be 1.62.

chain 5 L8R: the ratio to parent came out at 1.77.

Turning to chain 5 L8N, the ratio to parent came out at 1.6.

Turning to chain 5 L8Y, the ratio to parent amounted to 1.85.

As to chain 5 L8G, the ratio to parent worked out at 1.57.

In the case of chain 5 L8A, the ratio to parent was 1.77.

Take chain 5 F5N: the ratio to parent is 1.23.

As to chain 5 F5Y, the ratio to parent was 1.63.

For chain 5 F5M, the ratio to parent came to 0.797.

As for chain 5 F5W, the ratio to parent was found to be 2.33.

Take chain 5 F5S: the ratio to parent was 1.09.

As for chain 5 F5H, the ratio to parent worked out at 1.28.

Turning to chain 5 F5C, the ratio to parent came to 1.61.

As to chain 5 F5P, the ratio to parent amounted to 1.

As for chain 5 F5T, the ratio to parent was determined as 0.936.

Consider chain 5 F5K, for which the ratio to parent was 1.19.

chain 5 F5A: the ratio to parent was 0.77.

As for chain 5 F5I, the ratio to parent came to 0.389.

Regarding chain 5 F5Q, the ratio to parent worked out at 0.947.

Take chain 5 F5V: the ratio to parent stood at 0.617.

chain 5 F5R: the ratio to parent was determined as 1.73.

As for chain 5 F5D, the ratio to parent was determined as 1.54.

Consider chain 5 F5E, for which the ratio to parent amounted to 1.34.

As for chain 5 F5G, the ratio to parent worked out at 0.495.
